Results reported in paper PMC5528877.

What was measured:
[1] = immunofluorescence with ER marker PDI, COS-7; conditions: glycan lost
[2] = surface biotinylation, pull-down, western, COS-7; conditions: glycan lost; control: WT Vstm5
[3] = western blot of total lysate, COS-7; conditions: glycan lost; control: WT Vstm5

B1: V-set and transmembrane domain-containing protein 5 (Vstm5): N43,87,101,108A (protein)
parent chain: MRPLRCGERTQGIPLGLLAFWVTAARCLQSQGVSLYIPQSAINATVQQDILLSVDYICHGVPTIEWKYTPNWGVQRIVEWKPGTPANVSQSHRDRVCTFDNGSIQLFNVSVKDSGYYIVTVTEHPGSSQSGTILLRVSEIRYEDLHFVAVFFALLAAVAVVLISLMWVCNQCAYKFQRKRRYKLKESTTEEIEMKEVEC
With B1 the localisation_or_trafficking ([1]; control: WT Vstm5) was “changes”, the “localisation_or_trafficking, fold_change” value [2] was “decreases” and the expression_or_secretion [3] was “no change”.

B2: V-set and transmembrane domain-containing protein 5 (Vstm5): N101A (protein)
parent chain: MRPLRCGERTQGIPLGLLAFWVTAARCLQSQGVSLYIPQSAINATVQQDILLSVDYICHGVPTIEWKYTPNWGVQRIVEWKPGTPANVSQSHRDRVCTFDNGSIQLFNVSVKDSGYYIVTVTEHPGSSQSGTILLRVSEIRYEDLHFVAVFFALLAAVAVVLISLMWVCNQCAYKFQRKRRYKLKESTTEEIEMKEVEC
With B2 the “localisation_or_trafficking, fold_change” value [2] was “decreases” and the expression_or_secretion [3] was “no change”.

B3: V-set and transmembrane domain-containing protein 5 (Vstm5): N43,87A (protein)
parent chain: MRPLRCGERTQGIPLGLLAFWVTAARCLQSQGVSLYIPQSAINATVQQDILLSVDYICHGVPTIEWKYTPNWGVQRIVEWKPGTPANVSQSHRDRVCTFDNGSIQLFNVSVKDSGYYIVTVTEHPGSSQSGTILLRVSEIRYEDLHFVAVFFALLAAVAVVLISLMWVCNQCAYKFQRKRRYKLKESTTEEIEMKEVEC
In the case of B3, the “localisation_or_trafficking, fold_change” value [2] is reported as “decreases” and the expression_or_secretion [3] is reported as “no change”.

B4: V-set and transmembrane domain-containing protein 5 (Vstm5): N87,101,108A (protein)
parent chain: MRPLRCGERTQGIPLGLLAFWVTAARCLQSQGVSLYIPQSAINATVQQDILLSVDYICHGVPTIEWKYTPNWGVQRIVEWKPGTPANVSQSHRDRVCTFDNGSIQLFNVSVKDSGYYIVTVTEHPGSSQSGTILLRVSEIRYEDLHFVAVFFALLAAVAVVLISLMWVCNQCAYKFQRKRRYKLKESTTEEIEMKEVEC
In the case of B4, the “localisation_or_trafficking, fold_change” value [2] is reported as “decreases” and the expression_or_secretion [3] is reported as “no change”.

B5: V-set and transmembrane domain-containing protein 5 (Vstm5): tunicamycin (protein)
parent chain: MRPLRCGERTQGIPLGLLAFWVTAARCLQSQGVSLYIPQSAINATVQQDILLSVDYICHGVPTIEWKYTPNWGVQRIVEWKPGTPANVSQSHRDRVCTFDNGSIQLFNVSVKDSGYYIVTVTEHPGSSQSGTILLRVSEIRYEDLHFVAVFFALLAAVAVVLISLMWVCNQCAYKFQRKRRYKLKESTTEEIEMKEVEC
In the case of B5, the localisation_or_trafficking ([1]; control: DMSO-treated) is reported as “changes”.

B6: V-set and transmembrane domain-containing protein 5 (Vstm5): N87A (protein)
parent chain: MRPLRCGERTQGIPLGLLAFWVTAARCLQSQGVSLYIPQSAINATVQQDILLSVDYICHGVPTIEWKYTPNWGVQRIVEWKPGTPANVSQSHRDRVCTFDNGSIQLFNVSVKDSGYYIVTVTEHPGSSQSGTILLRVSEIRYEDLHFVAVFFALLAAVAVVLISLMWVCNQCAYKFQRKRRYKLKESTTEEIEMKEVEC
In the case of B6, the “localisation_or_trafficking, fold_change” value [2] is reported as “increases” and the expression_or_secretion [3] is reported as “no change”.

B7: V-set and transmembrane domain-containing protein 5 (Vstm5): N101,108A (protein)
parent chain: MRPLRCGERTQGIPLGLLAFWVTAARCLQSQGVSLYIPQSAINATVQQDILLSVDYICHGVPTIEWKYTPNWGVQRIVEWKPGTPANVSQSHRDRVCTFDNGSIQLFNVSVKDSGYYIVTVTEHPGSSQSGTILLRVSEIRYEDLHFVAVFFALLAAVAVVLISLMWVCNQCAYKFQRKRRYKLKESTTEEIEMKEVEC
In the case of B7, the “localisation_or_trafficking, fold_change” value [2] is reported as “no change” and the expression_or_secretion [3] is reported as “no change”.

B8: V-set and transmembrane domain-containing protein 5 (Vstm5): N108A (protein)
parent chain: MRPLRCGERTQGIPLGLLAFWVTAARCLQSQGVSLYIPQSAINATVQQDILLSVDYICHGVPTIEWKYTPNWGVQRIVEWKPGTPANVSQSHRDRVCTFDNGSIQLFNVSVKDSGYYIVTVTEHPGSSQSGTILLRVSEIRYEDLHFVAVFFALLAAVAVVLISLMWVCNQCAYKFQRKRRYKLKESTTEEIEMKEVEC
In the case of B8, the “localisation_or_trafficking, fold_change” value [2] is reported as “increases” and the expression_or_secretion [3] is reported as “no change”.

B9: V-set and transmembrane domain-containing protein 5 (Vstm5): N43A (protein)
parent chain: MRPLRCGERTQGIPLGLLAFWVTAARCLQSQGVSLYIPQSAINATVQQDILLSVDYICHGVPTIEWKYTPNWGVQRIVEWKPGTPANVSQSHRDRVCTFDNGSIQLFNVSVKDSGYYIVTVTEHPGSSQSGTILLRVSEIRYEDLHFVAVFFALLAAVAVVLISLMWVCNQCAYKFQRKRRYKLKESTTEEIEMKEVEC
With B9 the “localisation_or_trafficking, fold_change” value [2] was “decreases” and the expression_or_secretion [3] was “no change”.
